Measured values from publication PMC4823828, “A squalene synthase-like enzyme initiates production of tetraterpenoid hydrocarbons in Botryococcus braunii Race L” (Nature Communications, 2016).

Tests used:
[1] = target: T1, LOS (lycopaoctaene synthase) (Botryococcus braunii, UniProt A0A142ZC57); test: GC-MS of lycopaoctaene product from GGPP; type: biochemical; conditions: 20 nM squalestatin; GGPP substrate, NADPH, Mg2+, pH 6.8, 37 °C
T1 construct: LOS delta391-444: C-terminal transmembrane domain deleted from 444-residue protein, N-terminal 6xHis (pET28a), E. coli BL21(DE3), Ni-NTA

SSL-2 = target: T2, SSL-2 (Botryococcus braunii, UniProt G0Y287); test: radioactive TLC assay; type: biochemical; conditions: labelled compound (3H), 10 μM; 2 mM NADPH, 20 mM MgCl2, MOPS pH 6.8, 37 °C; product lycopaoctaene (minor)
T2 construct: SSL-2 delta392-465: C-terminal transmembrane domain deleted, N-terminal 6xHis (pET28a), E. coli BL21(DE3), Ni-NTA
T2 sequence (G0Y287 1-391): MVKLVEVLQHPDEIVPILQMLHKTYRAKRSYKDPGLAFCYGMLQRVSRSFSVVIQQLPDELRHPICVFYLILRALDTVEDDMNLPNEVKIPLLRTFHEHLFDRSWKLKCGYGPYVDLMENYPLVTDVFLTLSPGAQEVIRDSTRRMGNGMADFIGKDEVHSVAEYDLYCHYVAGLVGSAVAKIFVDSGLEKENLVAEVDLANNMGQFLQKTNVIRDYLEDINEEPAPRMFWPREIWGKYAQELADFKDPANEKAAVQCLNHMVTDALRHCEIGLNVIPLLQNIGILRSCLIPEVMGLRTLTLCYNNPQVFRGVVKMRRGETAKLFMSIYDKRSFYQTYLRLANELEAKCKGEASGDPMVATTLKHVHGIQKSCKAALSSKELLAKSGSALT

SlSS = target: T3, SlSS (Solanum lycopersicum, UniProt A0A3Q7ETS2); test: radioactive TLC assay; type: biochemical; conditions: labelled compound (3H), 10 μM, 2 mM NADPH, 20 mM MgCl2, MOPS pH 6.8, 37 °C
T3 construct: gene SQS1; SlSS delta387-411: C-terminal transmembrane domain deleted, N-terminal 6xHis (pET28a), E. coli BL21(DE3), Ni-NTA; NM_001247787 assigned to SlSS by judgement
T3 sequence (A0A3Q7ETS2 entry or part of it): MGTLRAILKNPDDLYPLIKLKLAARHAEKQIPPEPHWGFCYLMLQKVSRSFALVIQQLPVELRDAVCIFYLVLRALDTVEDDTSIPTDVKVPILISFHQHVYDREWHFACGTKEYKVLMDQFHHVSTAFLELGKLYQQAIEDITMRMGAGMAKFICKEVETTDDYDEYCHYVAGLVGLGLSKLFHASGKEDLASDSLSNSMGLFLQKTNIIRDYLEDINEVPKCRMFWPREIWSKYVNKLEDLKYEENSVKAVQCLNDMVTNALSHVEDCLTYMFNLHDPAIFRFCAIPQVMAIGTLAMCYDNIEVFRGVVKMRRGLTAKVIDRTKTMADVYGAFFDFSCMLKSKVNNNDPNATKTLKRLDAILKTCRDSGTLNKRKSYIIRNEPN

BSS (SS from race B) = target: T4, BSS (SS from race B) (Botryococcus braunii, UniProt Q9SDW9); test: radioactive TLC assay; type: biochemical; conditions: labelled compound (3H), 10 μM, 2 mM NADPH, 20 mM MgCl2, MOPS pH 6.8, 37 °C
T4 construct: BSS delta399-461: C-terminal transmembrane domain deleted, N-terminal 6xHis (pET28a), E. coli BL21(DE3), Ni-NTA
T4 sequence (Q9SDW9 1-398): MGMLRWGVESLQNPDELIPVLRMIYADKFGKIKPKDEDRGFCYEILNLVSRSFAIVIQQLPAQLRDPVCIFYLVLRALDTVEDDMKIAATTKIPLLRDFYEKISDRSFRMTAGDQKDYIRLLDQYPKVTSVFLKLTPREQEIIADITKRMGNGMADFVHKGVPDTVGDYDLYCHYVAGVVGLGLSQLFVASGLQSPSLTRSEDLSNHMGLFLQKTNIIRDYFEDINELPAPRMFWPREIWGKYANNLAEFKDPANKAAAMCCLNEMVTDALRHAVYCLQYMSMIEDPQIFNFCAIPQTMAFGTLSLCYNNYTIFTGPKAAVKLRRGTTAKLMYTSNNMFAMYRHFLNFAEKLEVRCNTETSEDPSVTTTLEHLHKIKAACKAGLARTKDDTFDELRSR

LSS (SS from race L) = target: T5, LSS (SS from race L) (Botryococcus braunii, UniProt A0A144YEA5); test: GC-MS product assay; radioactive TLC assay; type: biochemical; conditions: 10 μM substrate in radioactive assay; 2 mM NADPH, 20 mM MgCl2, MOPS pH 6.8, 37 °C; product squalene
T5 construct: LSS delta399-462: C-terminal transmembrane domain deleted, N-terminal 6xHis (pET28a), E. coli BL21(DE3), Ni-NTA
T5 sequence (A0A144YEA5 1-398): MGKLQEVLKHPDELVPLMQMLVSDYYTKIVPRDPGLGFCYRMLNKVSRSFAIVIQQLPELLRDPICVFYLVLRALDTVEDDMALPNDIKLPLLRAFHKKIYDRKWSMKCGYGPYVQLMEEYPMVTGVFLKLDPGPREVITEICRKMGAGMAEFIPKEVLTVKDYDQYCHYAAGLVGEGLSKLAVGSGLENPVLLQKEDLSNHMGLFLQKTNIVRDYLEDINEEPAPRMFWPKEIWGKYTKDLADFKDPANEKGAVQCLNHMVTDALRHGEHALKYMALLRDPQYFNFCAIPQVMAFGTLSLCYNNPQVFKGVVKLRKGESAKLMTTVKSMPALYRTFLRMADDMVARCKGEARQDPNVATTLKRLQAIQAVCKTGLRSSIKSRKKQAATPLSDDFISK

[2] = substrate: C/C(=C\COP(=O)(O)OP(=O)(O)O)CCC[C@H](C)CCC[C@H](C)CCCC(C)C; test: radioactive steady-state assay, n-hexane extraction, TLC, scintillation counting; type: biochemical, Botryococcus braunii; conditions: labelled compound (3H), 2 mM NADPH, 20 mM MgCl2, MOPS pH 6.8, 37 °C, 100 nM enzyme
Text: (§1) radioactive steady-state assay, n-hexane extraction, TLC, scintillation counting on LOS (lycopaoctaene synthase)

[3] = substrate: CC(C)=CCC/C(C)=C/CC/C(C)=C/CC/C(C)=C/COP(=O)(O)OP(=O)(O)O; test: as above; type: biochemical, Botryococcus braunii; conditions: labelled compound (3H), 2 mM NADPH, 20 mM MgCl2, MOPS pH 6.8, 37 °C, 100 nM enzyme
Text: as §1

[4] = substrate: CC(C)=CCC/C(C)=C/CC/C(C)=C/CO[P@@](=O)(O)OP(=O)(O)O; test: as above; type: biochemical, Botryococcus braunii; conditions: labelled compound (3H), 2 mM NADPH, 20 mM MgCl2, MOPS pH 6.8, 37 °C, 100 nM enzyme
Text: as §1

With `C=C(CC[C@]12O[C@H](C(=O)O)[C@@](O)(C(=O)O)[C@](C(=O)O)(O1)[C@H](OC(=O)/C=C/[C@@H](C)C[C@@H](C)CC)[C@H]2O)[C@@H](OC(C)=O)[C@H](C)Cc1ccccc1` [squalestatin] the “strong inhibition at 20 nM” value [1] was “LOS is strongly inhibited by squalestatin (Fig. 5c), a potent SS inhibitor”.

`CC(C)=CCC/C(C)=C/CC/C(C)=C/CC/C(C)=C/COP(=O)(O)OP(=O)(O)O` [GGPP] was tested, and the “radioactive TLC assay” value (SSL-2) was “allowing SSL-2 and SSL-1 plus SSL-2 to use GGPP to generate minor amounts of lycopaoctaene”.

In the case of `CC(C)=CCC/C(C)=C/CC/C(C)=C/COP(=O)(O)OP(=O)(O)O` [FPP], the “radioactive TLC assay” value (SlSS; product squalene) is reported as “the typical SS enzymes display SS activity as their main catalytic function”, the “radioactive TLC assay” value (BSS (SS from race B); product squalene) is reported as “the typical SS enzymes display SS activity as their main catalytic function” and the “GC-MS product assay; radioactive TLC assay” value (LSS (SS from race L)) is reported as “LSS was shown to yield squalene as its sole product in an in vitro assay”.

`C/C(=C\COP(=O)(O)OP(=O)(O)O)CCC[C@H](C)CCC[C@H](C)CCCC(C)C` [PPP] was tested, and the “radioactive TLC assay” value (SlSS; product lycopadiene (minute)) was “BSS and SlSS also using PPP to produce minute amounts of lycopadiene” and the “radioactive TLC assay” value (BSS (SS from race B); product lycopadiene (minute)) was “BSS and SlSS also using PPP to produce minute amounts of lycopadiene”.

B1: LOS (lycopaoctaene synthase) (Botryococcus braunii) (protein)
chain: MKYTDFLAHPDEIIPTIRMMYADYRLKNMEIKDPSVRFCYNMLNRVSRSFAMVIQQLPVELRDATCVFYLILRALDTVEDDMAIPKEVKIPMLRTFHEHLSDRSWKIKCGYGPYVDLMDNYPLVTDVYLRFDEGTKAVIKDITRRMGNGMADFIDLDEVLTIPQYDLYCHYVAGLCGIGMCKLFVDSGLEKEDLVAEEDLANQMGLFLQKNNIVRDYLEDINELPAPRMFWPKEIWGNYAKQLDEFKDPKNLDKAMLCLNHMVTDALRHCEVGLRSLSLLHNPNILRAVLIPQVMGVRTLTLVYNNPEVFRGVVKMRRGETAKIFVTTTSKLSFFRTYLQFANEMEQKCLTEAKNDPMVALTLKRVQGVQAACRAAIVKAEIAEGAKGPS
notes: LOS delta391-444: C-terminal transmembrane domain deleted from 444-residue protein, N-terminal 6xHis (pET28a), E. coli BL21(DE3), Ni-NTA
B1 showed a Km [2] of 110 ± 10 µM, a kcat [2] of 0.00116 s⁻¹ and a kcat/Km [2] of 10.3 M⁻¹ s⁻¹. For the same molecule, the Km [3] was 70 ± 20 µM, the kcat [3] was 0.0114 s⁻¹ and the kcat/Km [3] was 165 M⁻¹ s⁻¹. It also gave a Km [4] of 130 ± 20 µM, a kcat [4] of 0.0205 s⁻¹ and a kcat/Km [4] of 162 M⁻¹ s⁻¹.
